Like-named read-outs stand apart in the source and are kept apart here.
Experiments:
[1] = Biodistribution in tumor bearing nude mice; type: in vivo; conditions: male, nude, mouse, iv, total radioactivity, mean ± SEM; for tissue uptake at 1 h: 1 h p.i.; for tissue uptake at 4 h: 4 h p.i.
Description: (§1) Male albino mice in a weight range of18-24 g were used for normal mice treatments and malenude mice (6 to 8 weeks old) were used for in-vivo tumor treatments. The mice were housed at controlled room temperature (25 °C) in a 12 h light/12 h dark schedule. They were kept in standard cages with free access to food and water except during the experiments. The nude mice were grown and kept in isolated sterile condition. All animal experiments were carried out in compliance with our institutional ethical guidelines.
(§2) U373MG cells were grown and harvested by trypsinization. Cells were washed twice with fresh RPMI medium containing 20% FBS and centrifuged for 5 min at 200 g. Pellets were resuspended in RPMI medium containing 20% FBS. A 100 µL suspension of 4 × 10^6 cells was subcutaneously injected on the right flank of each nude mouse. After four weeks, the size of inducted tumors was suitable for biodistribution study and mice were injected via the tail vein with radiolabeled peptide in two groups in the presence and absence of block. They sacrificed at 1 h and 4 h time points to assay the biodistribution. They were dissected and % ID/g of tissues was measured as described above. Finally, tumor-to-organ ratios were calculated.

U373MG tumor = test: Biodistribution in tumor bearing nude mice; type: in vivo
Description: as §1, §2

[2] = Protein binding in human serum; type: in vitro ADME; conditions: fresh human serum, 2 h incubation; ethanol precipitation, centrifugation; γ-counter
Description: For protein binding estimation, freshly labeled peptide solution was filtered through a […] and a 100 μL aliquot of filtrate was incubated in 1ml fresh human serum for 2 h. After ethanol treatment and centrifugation (4000 g, 5 min, 4 °C), all the supernatant was completely removed. A slight wash with 1x phosphate-buffered saline (PBS) was done on the surface of the sediment and the eluate was added to the removed supernatant. The total activity of the supernatant and the activity of the sediment were measured by well-type NaI γ-counter to determine the percentage of radio peptide bound or transferred to albumin and other serum proteins.

[3] = Log P, octanol/PBS partition; type: physicochemical; conditions: shake-flask octanol/PBS, vortexed 10 min, γ-counter, three aliquots per layer averaged
Description: In a 2 mL microtube, 0.5 mL of the^99mTc labeled peptides in PBS was mixed with 0.5 mL of octanol. The tube was vigorously vortexed over a period of 10 min and centrifuged at 4000g for 5 min. Three aliquots of 100 μL were sampled from eachlayer and counted in theγ counter. The averaged activities from the aqueous and the octanol layers were used to calculate the log p-values. The octanol-to-water partition coefficient (Po/w) of the radiolabeled peptides was calculated by dividing the counts of the octanol phase by that of the aqueous phase.

[4] = U373MG tumor, U373MG tumor, blocked tumor bearing nude mice (excess SP), P< 0.01 vs nonblocked, read-out: %ID/g Tumor
[5] = blood, Blood, blocked tumor bearing nude mice (excess SP), read-out: %ID/g Blood
[6] = bone, Bone, blocked tumor bearing nude mice (excess SP), read-out: %ID/g Bone
[7] = bone, Bone, tumor bearing nude mice, i.v., n=3, read-out: %ID/g Bone
[8] = heart, Heart, blocked tumor bearing nude mice (excess SP), read-out: %ID/g Heart
[9] = heart, Heart, tumor bearing nude mice, i.v., n=3, read-out: %ID/g Heart
[10] = kidneys, Kidneys, blocked tumor bearing nude mice (excess SP), read-out: %ID/g Kidneys
[11] = kidneys, Kidneys, tumor bearing nude mice, i.v., n=3, read-out: %ID/g Kidneys
[12] = muscle, Muscle, blocked tumor bearing nude mice (excess SP), read-out: %ID/g Muscle
[13] = muscle, Muscle, tumor bearing nude mice, i.v., n=3, read-out: %ID/g Muscle
[14] = salivary gland, Salivary G., blocked tumor bearing nude mice (excess SP), read-out: %ID/g Salivary G.
[15] = salivary gland, Salivary G., tumor bearing nude mice, i.v., n=3, read-out: %ID/g Salivary G.
[16] = spleen, Spleen, blocked tumor bearing nude mice (excess SP), read-out: %ID/g Spleen
[17] = spleen, Spleen, tumor bearing nude mice, i.v., n=3, read-out: %ID/g Spleen
[18] = stomach, Stomach, blocked tumor bearing nude mice (excess SP), read-out: %ID/g Stomach
[19] = stomach, Stomach, tumor bearing nude mice, i.v., n=3, read-out: %ID/g Stomach

CC(C)C[C@H](NC(=O)CNC(=O)[C@H](Cc1ccc(O)cc1)NC(=O)[C@H](Cc1ccccc1)NC(=O)[C@H](CCC(N)=O)NC(=O)[C@H](CCC(N)=O)NC(=O)[C@@H]1CCCN1C(=O)[C@H](CCCCN)NC(=O)[C@@H]1CCCN1C(=O)[C@H](CCCNC(=N)N)NC(=O)c1ccc(NN)nc1)C(=O)N[C@@H](CC[S+](C)[O-])C(N)=O (stereo partly drawn) [^99mTc-HYNIC-Tyr^8-Met(O)^11-SP, metal not drawn]
tissue uptake at 1 h [1, 4]: 1.36 ± 0.19 %ID/g
tissue uptake at 4 h [1, 4]: 0.54 ± 0.08 %ID/g
tissue uptake at 4 h ([1]; U373MG tumor, U373MG tumor, tumor bearing nude mice, i.v., n=3, read-out: %ID/g Tumor): 1.26 ± 0.11 %ID/g
tissue uptake at 1 h [1, 5]: 1.7 ± 0.14 %ID/g
tissue uptake at 4 h [1, 5]: 0.52 ± 0.15 %ID/g
tissue uptake at 4 h ([1]; blood, Blood, tumor bearing nude mice, i.v., n=3, read-out: %ID/g Blood): 0.41 ± 0.12 %ID/g
tissue uptake at 1 h [1, 6]: 0.66 ± 0.07 %ID/g
tissue uptake at 4 h [1, 6]: 0.31 ± 0.03 %ID/g
tissue uptake at 1 h [1, 7]: 0.52 ± 0.06 %ID/g
tissue uptake at 4 h [1, 7]: 0.27 ± 0.03 %ID/g
tissue uptake at 1 h [1, 8]: 0.98 ± 0.09 %ID/g
tissue uptake at 4 h [1, 8]: 0.23 ± 0.02 %ID/g
tissue uptake at 1 h [1, 9]: 0.78 ± 0.11 %ID/g
tissue uptake at 4 h [1, 9]: 0.25 ± 0.02 %ID/g
tissue uptake at 1 h [1, 10]: 20.2 ± 0.61 %ID/g
tissue uptake at 4 h [1, 10]: 13.1 ± 0.76 %ID/g
tissue uptake at 1 h [1, 11]: 19.3 ± 0.65 %ID/g
tissue uptake at 4 h [1, 11]: 12.8 ± 0.52 %ID/g
tissue uptake at 1 h [1, 12]: 0.73 ± 0.09 %ID/g
tissue uptake at 4 h [1, 12]: 0.09 ± 0.01 %ID/g
tissue uptake at 1 h [1, 13]: 0.51 ± 0.06 %ID/g
tissue uptake at 4 h [1, 13]: 0.08 ± 0.01 %ID/g
tissue uptake at 1 h [1, 14]: 0.95 ± 0.06 %ID/g
tissue uptake at 4 h [1, 14]: 0.41 ± 0.03 %ID/g
tissue uptake at 1 h [1, 15]: 1 ± 0.09 %ID/g
tissue uptake at 4 h [1, 15]: 0.33 ± 0.04 %ID/g
tissue uptake at 1 h [1, 16]: 0.34 ± 0.04 %ID/g
tissue uptake at 4 h [1, 16]: 0.26 ± 0.03 %ID/g
tissue uptake at 1 h [1, 17]: 0.46 ± 0.07 %ID/g
tissue uptake at 4 h [1, 17]: 0.32 ± 0.03 %ID/g
tissue uptake at 1 h [1, 18]: 0.63 ± 0.13 %ID/g
tissue uptake at 4 h [1, 18]: 0.26 ± 0.05 %ID/g
tissue uptake at 1 h [1, 19]: 0.81 ± 0.12 %ID/g
tissue uptake at 4 h [1, 19]: 0.32 ± 0.03 %ID/g
D% Blood (U373MG tumor; Blood, decreased percent of %ID/g between 1 h and 4 h, nude mice): 69%
%ID/g Blood (U373MG tumor; Blood, tumor bearing nude mice, 1 h p.i., i.v., mean ± SEM, n=3): 1.32±0.16 %ID/g
D% Bone (U373MG tumor; Bone, decreased percent of %ID/g between 1 h and 4 h, nude mice): 48%
D% Heart (U373MG tumor; Heart, decreased percent of %ID/g between 1 h and 4 h, nude mice): 68%
D% Kidneys (U373MG tumor; Kidneys, decreased percent of %ID/g between 1 h and 4 h, nude mice): 34%
%ID/g L. intestine (U373MG tumor; L. intestine, blocked tumor bearing nude mice (excess SP), 1 h p.i., mean ± SEM, P< 0.01 vs nonblocked): 0.73±0.14 %ID/g
%ID/g L. intestine (U373MG tumor; L. intestine, blocked tumor bearing nude mice (excess SP), 4 h p.i., mean ± SEM, P< 0.01 vs nonblocked): 0.70±0.16 %ID/g
D% L. intestine (U373MG tumor; L. intestine, decreased percent of %ID/g between 1 h and 4 h, nude mice): 3%
%ID/g L. intestine (U373MG tumor; L. intestine, tumor bearing nude mice, 1 h p.i., i.v., mean ± SEM, n=3): 1.89±0.15 %ID/g
%ID/g L. intestine (U373MG tumor; L. intestine, tumor bearing nude mice, 4 h p.i., i.v., mean ± SEM, n=3): 1.83±0.06 %ID/g
%ID/g Liver (U373MG tumor; Liver, blocked tumor bearing nude mice (excess SP), 1 h p.i., mean ± SEM): 0.96±0.10 %ID/g
%ID/g Liver (U373MG tumor; Liver, blocked tumor bearing nude mice (excess SP), 4 h p.i., mean ± SEM): 0.50±0.08 %ID/g
D% Liver (U373MG tumor; Liver, decreased percent of %ID/g between 1 h and 4 h, nude mice): 37%
%ID/g Liver (U373MG tumor; Liver, tumor bearing nude mice, 1 h p.i., i.v., mean ± SEM, n=3): 0.86±0.09 %ID/g
%ID/g Liver (U373MG tumor; Liver, tumor bearing nude mice, 4 h p.i., i.v., mean ± SEM, n=3): 0.54±0.07 %ID/g
%ID/g Lung (U373MG tumor; Lung, blocked tumor bearing nude mice (excess SP), 1 h p.i., mean ± SEM): 1.53±0.25 %ID/g
%ID/g Lung (U373MG tumor; Lung, blocked tumor bearing nude mice (excess SP), 4 h p.i., mean ± SEM): 0.67±0.09 %ID/g
D% Lung (U373MG tumor; Lung, decreased percent of %ID/g between 1 h and 4 h, nude mice): 48%
%ID/g Lung (U373MG tumor; Lung, tumor bearing nude mice, 1 h p.i., i.v., mean ± SEM, n=3): 1.47±0.15 %ID/g
%ID/g Lung (U373MG tumor; Lung, tumor bearing nude mice, 4 h p.i., i.v., mean ± SEM, n=3): 0.76±0.12 %ID/g
D% Muscle (U373MG tumor; Muscle, decreased percent of %ID/g between 1 h and 4 h, nude mice): 84%
%ID/g S. intestine (U373MG tumor; S. intestine, blocked tumor bearing nude mice (excess SP), 1 h p.i., mean ± SEM, P< 0.01 vs nonblocked): 0.83±0.12 %ID/g
%ID/g S. intestine (U373MG tumor; S. intestine, blocked tumor bearing nude mice (excess SP), 4 h p.i., mean ± SEM, P< 0.05 vs nonblocked): 0.36±0.09 %ID/g
D% S. intestine (U373MG tumor; S. intestine, decreased percent of %ID/g between 1 h and 4 h, nude mice): 70%
%ID/g S. intestine (U373MG tumor; S. intestine, tumor bearing nude mice, 1 h p.i., i.v., mean ± SEM, n=3): 2.57±0.34 %ID/g
%ID/g S. intestine (U373MG tumor; S. intestine, tumor bearing nude mice, 4 h p.i., i.v., mean ± SEM, n=3): 0.78±0.07 %ID/g
D% Salivary G. (U373MG tumor; Salivary G., decreased percent of %ID/g between 1 h and 4 h, nude mice): 66%
D% Stomach (U373MG tumor; Stomach, decreased percent of %ID/g between 1 h and 4 h, nude mice): 61%
D% Tumor (U373MG tumor; U373MG tumor, decreased percent of %ID/g between 1 h and 4 h, nude mice): 62%
%ID/g Tumor (U373MG tumor; U373MG tumor, tumor bearing nude mice, 1 h p.i., i.v., mean ± SEM, n=3): 3.36±0.26 %ID/g
fraction unbound at 2 h [2]: 0.56
log P [3]: -3.75

Source: article PMC4277623, “Synthesis and Preliminary Evaluation of a New ^99mTc Labeled Substance P Analogue as a Potential Tumor Imaging Agent” (Iranian Journal of Pharmaceutical Research : IJPR, 2015)
